From patent US20200216534A1
Read-outs that look alike come from different tables or passages of the source.

How the values were obtained:
Assay in all cases: cell-based or functional assay
[1] = target: m19-humBBz CAR (mouse; human) (UniProt P01731)
[2] = target: h19BBz CAR (human) (UniProt P01732)
[3] = target: m19-humBBz CAR (mouse; human) (UniProt P01731); remark: listed apart in the source

TRAF1 DN (184-417aa) gave an NF-κB signaling, GFP % in NF-κB/293/GFP-Luc reporter cells [1] of 13.4% and an NF-κB signaling, GFP MFI in NF-κB/293/GFP-Luc reporter cells [1] of 1690 MFI.

TRAF2 (over-expressed, cerulean-tagged) was tested, and the NF-κB, fold against h19BBz alone [2] was 7.7 fold.

B1: TRAF3 DN (382-568aa) (protein, UniProt Q13114 382-568, looked up, species assumed)
chain: ESQLSRHDQMLSVHDIRLADMDLRFQVLETASYNGVLIWKIRDYKRRKQEAVMGKTLSLYSQPFYTGYFGYKMCARVYLNGDGMGKGTHLSLFFVIMRGEYDALLPWPFKQKVTLMLMDQGSSRRHLGDAFKPDPNSSSFKKPTGEMNIASGCPVFVAQTVLENGTYIKDDTIFIKVIVDTSDLPDP
modifications: cerulean fluorescent protein tag
B1 was tested, and the NF-κB signaling, GFP % in NF-κB/293/GFP-Luc reporter cells [3] was 30.8% and the NF-κB signaling, GFP MFI in NF-κB/293/GFP-Luc reporter cells [3] was 6060 MFI.

B2: TRAF2 DN (87-501aa) (protein, UniProt Q12933 87-501, looked up, species assumed)
chain: SSSAFPDNAARREVESLPAVCPSDGCTWKGTLKEYESCHEGRCPLMLTECPACKGLVRLGEKERHLEHECPERSLSCRHCRAPCCGADVKAHHEVCPKFPLTCDGCGKKKIPREKFQDHVKTCGKCRVPCRFHAIGCLETVEGEKQQEHEVQWLREHLAMLLSSVLEAKPLLGDQSHAGSELLQRCESLEKKTATFENIVCVLNREVERVAMTAEACSRQHRLDQDKIEALSSKVQQLERSIGLKDLAMADLEQKVLEMEASTYDGVFIWKISDFARKRQEAVAGRIPAIFSPAFYTSRYGYKMCLRIYLNGDGTGRGTHLSLFFVVMKGPNDALLRWPFNQKVTLMLLDQNNREHVIDAFRPDVTSSSFQRPVNDMNIASGCPLFCPVSKMEAKNSYVRDDAIFIKAIVDLTGL
modifications: cerulean fluorescent protein tag
Molecule B2 has an NF-κB signaling, GFP MFI in NF-κB/293/GFP-Luc reporter cells [3] of 14300 MFI and an NF-κB signaling, GFP+% in NF-κB/293/GFP-Luc reporter cells [3] of 63.5%.
